The source of these data is patent publication US20240010742A1 (RESEARCH DEVELOPMENT FOUNDATION, published 2024).

For test [1], the target named is T1, FcγRIIaH131 (human, UniProt P12318 36-218, limits assumed, biotinylated (BLI, beads)).
T1 construct: also called FcgRIIaH131
T1 sequence (looked up): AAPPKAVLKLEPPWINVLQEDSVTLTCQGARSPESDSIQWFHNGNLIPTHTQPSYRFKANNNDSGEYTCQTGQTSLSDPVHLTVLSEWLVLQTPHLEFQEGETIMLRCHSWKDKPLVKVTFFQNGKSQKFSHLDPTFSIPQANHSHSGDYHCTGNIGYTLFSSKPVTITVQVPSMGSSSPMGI
Briefly: flow cytometry: hexameric Fc on FcγR-coated beads; mean fluorescence intensity.

For test [2], the target named is T2, FcγRIIaR131 (human, UniProt P12318 36-218, limits assumed, biotinylated (BLI, beads)).
T2 construct: also called FcgRIIaR131; 2aR
T2 sequence (looked up): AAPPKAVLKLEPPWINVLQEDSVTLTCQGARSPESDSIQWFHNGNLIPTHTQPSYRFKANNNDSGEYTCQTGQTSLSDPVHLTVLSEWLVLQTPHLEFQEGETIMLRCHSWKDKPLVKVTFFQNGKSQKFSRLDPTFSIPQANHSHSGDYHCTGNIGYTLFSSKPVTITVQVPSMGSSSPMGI
The description is as above.

In test [3] the target is T3, FcγRIIIaV158 (human, UniProt P08637 17-208, biotinylated (BLI, beads)).
T3 construct: also called FcgRIIIaV158; 3aV
T3 sequence (P08637 17-208 F176V limits assumed): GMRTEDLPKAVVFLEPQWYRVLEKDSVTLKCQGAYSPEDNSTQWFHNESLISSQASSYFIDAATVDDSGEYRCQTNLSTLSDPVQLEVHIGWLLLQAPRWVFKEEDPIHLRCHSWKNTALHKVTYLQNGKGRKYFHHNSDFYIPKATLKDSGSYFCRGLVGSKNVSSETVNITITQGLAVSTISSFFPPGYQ
The description is as above.

For test [4], the target named is T4, FcgRIIIbNA2 (human, UniProt O75015 17-200, limits assumed).
T4 construct: also called FcγRIIIb
T4 sequence (O75015 17-200 limits assumed): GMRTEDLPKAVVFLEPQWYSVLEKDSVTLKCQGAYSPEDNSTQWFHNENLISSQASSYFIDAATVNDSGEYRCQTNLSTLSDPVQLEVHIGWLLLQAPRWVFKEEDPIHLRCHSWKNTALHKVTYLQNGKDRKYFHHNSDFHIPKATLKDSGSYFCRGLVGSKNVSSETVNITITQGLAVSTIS
The test is described as above.

The target of a further test is T5, FcγRIIb (human, UniProt P31994 46-217, limits assumed, biotinylated (BLI, beads)).
T5 construct: Recombinant receptor on biosensors, SPR or beads; also called FcgRIIb; 2b
T5 sequence (looked up): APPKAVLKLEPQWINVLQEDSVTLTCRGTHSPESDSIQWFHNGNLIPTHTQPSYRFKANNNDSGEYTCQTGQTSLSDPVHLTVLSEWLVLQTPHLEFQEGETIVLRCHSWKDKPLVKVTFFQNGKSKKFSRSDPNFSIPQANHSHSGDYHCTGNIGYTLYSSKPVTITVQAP
Briefly: flow cytometry: hexameric Fc on FcγR-coated beads; y axis = mean fluorescence intensity. (In general: In flow cytometry, cells or beads pass a laser one at a time.)

For a further test, the target named is T6, FcγRI (human, UniProt P12314 16-288, limits assumed, biotinylated (BLI, beads)).
T6 construct: Recombinant receptor; also called FcgRI
T6 sequence (P12314 16-288 limits assumed): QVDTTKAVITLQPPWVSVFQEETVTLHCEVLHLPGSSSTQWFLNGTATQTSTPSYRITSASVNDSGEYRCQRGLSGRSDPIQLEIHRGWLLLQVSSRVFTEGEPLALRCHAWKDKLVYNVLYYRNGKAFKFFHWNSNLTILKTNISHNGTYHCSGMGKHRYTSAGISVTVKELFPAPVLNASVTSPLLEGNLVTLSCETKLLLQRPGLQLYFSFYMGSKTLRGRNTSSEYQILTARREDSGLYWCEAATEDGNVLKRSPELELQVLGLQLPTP
The test is described as above.

The target of test [5] is T7, FcγRIIb on cells (Raji cells; THP-1 cells) (human, UniProt P31994 43-310).
T7 construct: whole, on cells; also called FcγR2b; FcgR2b
T7 sequence (looked up): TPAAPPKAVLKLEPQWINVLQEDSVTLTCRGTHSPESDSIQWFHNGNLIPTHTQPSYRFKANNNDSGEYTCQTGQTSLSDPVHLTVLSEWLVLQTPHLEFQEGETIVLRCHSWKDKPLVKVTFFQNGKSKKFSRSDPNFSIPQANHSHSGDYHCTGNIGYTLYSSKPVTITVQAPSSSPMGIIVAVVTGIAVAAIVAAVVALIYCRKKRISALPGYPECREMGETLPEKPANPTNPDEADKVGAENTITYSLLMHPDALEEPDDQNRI
Nature of the test: flow cytometry: hexameric Fc on Raji cells (only FcγR2b among Fc receptors), 40 to 0.039 ug/ml; upper panel fluorescence intensity (axis without title), lower panel percent positive; last bar of each group = Ramos cells at 40 ug/ml. Here is the method:
Error bars are standard error of the mean of triplicate samples. Statistical analysis was performed by one way ANOVA with Tukey s multiple comparisons test (***P 0.001, ****P 0.0001). […] The cell binding of hexameric Fc was tested with Raji cell which expresses only FcγR2b among Fc receptors (FIG. 13).

Test [6] concerns the target T2, FcγRIIaR131. Briefly: flow cytometry: hexameric Fc on FcγR-coated beads; y axis = mean fluorescence intensity.
Test [7] has as its target T1, FcγRIIaH131. Nature of the test: flow cytometry: hexameric Fc ('Hex 2b18KQS-1') on FcγR-coated beads; mean fluorescence intensity.
Test [8] has as its target T3, FcγRIIIaV158. Described as above.
Test [9] deals with T4, FcgRIIIbNA2. The test is described as above.

B1: Hex 2b18KQS-ST (glycosylated version of Hex 2b18KQS) (Fc fusion)
chain: EPKSCDKTHTCPPCPAPVDFRDPLVFLFPPKPKDTLMISRTPEVTCVVVDVSPEDPEVKFNWYVDGVEVHNAKTKPQEEQYNSTYRVVSVLTVCHQDWLNGKEYKCKVSNKLAPHPIIKTISKAKGQPREPQVYTLPPSRDELTKNQVSLTCLVKGFYPSDIAVEWESNGQPENNYKTTPPVLDSDGSFFLYSKLTVDKSRWQQGNVFSCSVMHEALHNHYTQKSLSLSPGKPTLYNVSLVMSDTAGTCY
notes: Ser298/Thr299 restored (glycosylated); forms a hexamer of Fc; also called glycosylated Hex 2b18KQS-ST Fc; hexameric 2b18KQS-ST Fc
Consider B1, for which the binding result with FcγRIIaH131 [1] is reported as “no binding”; in the test with FcγRIIaR131 [2], “no binding”; in the test with FcγRIIIaV158 [3], “no binding”; in the test with FcgRIIIbNA2 [4], “no binding”; with FcγRIIb it was “binds”; in the test with FcγRI, “binds”. Besides, in test [5], the binding result is “binds”.

B2: Hex 2b18K-ST (Fc fusion)
Fc-tailpiece fusion chain: EPKSCDKTHTCPPCPAPVDFRDPLVFLFPPKPKDTLMISRTPEVTCVVVDVDPEDPEVKFNWYVDGVEVHNAKTKPREEQYNSTYRVVSVLTVCHQDWLNGKEYKCKVSNKLAPHPIIKTISKAKGQPREPQVYTLPPSRDELTKNQVSLTCLVKGFYPSDIAVEWESNGQPENNYKTTPPVLDSDGSFFLYSKLTVDKSRWQQGNVFSCSVMHEALHNHYTQKSLSLSPGKPTLYNVSLVMSDTAGNCY
notes: also called Hex2b218K-ST; glycosylated hexameric construct of Fc variant 2b18K
Turning to B2, the binding result with FcγRIIaH131 [1] is on record as “no binding”; with FcγRIIIaV158 [3], “no binding”; in the test with FcgRIIIbNA2 [4], “no binding”; with FcγRIIb it was “binds”; with FcγRIIaR131 [6] it was “binds”; in the test with FcγRI it was “binds”.

B3: Hex 2b18KQS (aglycosylated hexameric Fc) (Fc fusion)
chain: EPKSCDKTHTCPPCPAPVDFRDPLVFLFPPKPKDTLMISRTPEVTCVVVDVSPEDPEVKFNWYVDGVEVHNAKTKPQEEQYNGAYRVVSVLTVCHQDWLNGKEYKCKVSNKLAPHPIIKTISKAKGQPREPQVYTLPPSRDELTKNQVSLTCLVKGFYPSDIAVEWESNGQPENNYKTTPPVLDSDGSFFLYSKLTVDKSRWQQGNVFSCSVMHEALHNHYTQKSLSLSPGKPTLYNVSLVMSDTAGTCY
notes: forms a hexamer of Fc; also called Hex 2b18KQS Fc; Hex-2bKQS
As to B3, the binding result is listed as “binds” with FcγRIIb; “binds” with FcγRIIaR131 [6]; “binds” in [5]; “no binding” with FcγRIIaH131 [7]; “no binding” with FcγRIIIaV158 [8]; “no binding” with FcgRIIIbNA2 [9].
